Assay results taken from publication PMC8605244 (The Journal of Biological Chemistry, 2021).

Experiments:
[1] = target: T1, H-Ras, biotinylated, loaded with a nonhydrolyzable GTP analog (Ras-GTP) or with GDP (Ras-GDP) (UniProt P01112 1-189, biotin on the AVI-tag (attached in vivo by BirA)); assay: SPR; OpenSPR, streptavidin chip; biotinylated Ras in the GDP-bound state immobilised at 50 ug/ml; RASSF5 variants injected at 1.25-20 uM; Ras buffer (Tris 20 mM, NaCl 100 mM, MgCl2 5 mM, pH 7.5) with 0.1% Tween20 and 0.5% BSA; 30 ul/min; conditions: both partners purified
T1 construct: H-Ras; One construct used in two nucleotide states; also called biotinylated-Ras; not shown: His tag, N-terminal, cleaved; AVI-tag, C-terminal, kept
T1 sequence (P01112 whole entry): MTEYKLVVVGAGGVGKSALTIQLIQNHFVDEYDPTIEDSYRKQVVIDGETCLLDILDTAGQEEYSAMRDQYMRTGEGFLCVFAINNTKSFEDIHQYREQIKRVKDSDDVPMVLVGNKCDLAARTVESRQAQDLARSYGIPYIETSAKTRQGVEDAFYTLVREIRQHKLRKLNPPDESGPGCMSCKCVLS

[2] = target: T1, H-Ras, biotinylated, loaded with a …; assay: SPR; OpenSPR, streptavidin chip; biotinylated Ras in the GTP-bound state (nonhydrolyzable analog) immobilised at 50 ug/ml; RASSF5 variants injected at 1.25-20 uM; Ras buffer (Tris 20 mM, NaCl 100 mM, MgCl2 5 mM, pH 7.5) with 0.1% Tween20 and 0.5% BSA; 30 ul/min; conditions: both partners purified

Kd [1] [nM] | Kd [2] [nM] | Binder
1600 ± 300 |  | RASSF5 RA domain mutant D2 (RTRHWKR) (designed binder, RASSF5 (NORE1A) RA domain, residues 205-362, with RTRHWKR at positions 218, 219, 220, 221, 234, 286, 305 (WT: KHCLFHM); The numbers follow PDB 3DDC; Selected by yeast surface display against Ras-GDP; source: E. coli BL21(DE3), pET28a, purified (Ni beads, Superdex75 SEC)) EIKQKIDSYNSRERTRHGMKLSEDGTYTGWIKVHLKLRRPVTVPAGIRPQSIYDAIKEVNPAATTDKRTSFYLPLDAIKQLKISSTTTVSEVIQGLLKKFRVVDNPQKFALFKRIHKDGQVLFQKLSIADYPLYLRLLAGPDTDVLSFVLKENETGEV
1600 ± 300 | 1000 ± 150 | RASSF5 RA domain mutant T3 (WSRLYKR) (designed binder, RASSF5 (NORE1A) RA domain, residues 205-362, with WSRLYKR at positions 218, 219, 220, 221, 234, 286, 305 (WT: KHCLFHM); The numbers follow PDB 3DDC; Selected by yeast surface display against Ras-GTP; source: E. coli BL21(DE3), pET28a, purified (Ni beads, Superdex75 SEC)) EIKQKIDSYNSREWSRLGMKLSEDGTYTGYIKVHLKLRRPVTVPAGIRPQSIYDAIKEVNPAATTDKRTSFYLPLDAIKQLKISSTTTVSEVIQGLLKKFRVVDNPQKFALFKRIHKDGQVLFQKLSIADYPLYLRLLAGPDTDVLSFVLKENETGEV

More lines, now with the values behind:

Binder | Kd [1] [nM] | Kd [2] [nM]
RASSF5 RA domain mutant D3 (FRKFWHK) (designed binder, RASSF5 (NORE1A) RA domain, residues 205-362, with FRKFWHK at positions 218, 219, 220, 221, 234, 286, 305 (WT: KHCLFHM); The numbers follow PDB 3DDC; Selected by yeast surface display against Ras-GDP; source: E. coli BL21(DE3), pET28a, purified (Ni beads, Superdex75 SEC)) EIKQKIDSYNSREFRKFGMKLSEDGTYTGWIKVHLKLRRPVTVPAGIRPQSIYDAIKEVNPAATTDKRTSFYLPLDAIKQLHISSTTTVSEVIQGLLKKFKVVDNPQKFALFKRIHKDGQVLFQKLSIADYPLYLRLLAGPDTDVLSFVLKENETGEV | 1600 ± 200 | 
RASSF5 RA domain mutant T2 (YRRLYKR) (designed binder, RASSF5 (NORE1A) RA domain, residues 205-362, with YRRLYKR at positions 218, 219, 220, 221, 234, 286, 305 (WT: KHCLFHM); The numbers follow PDB 3DDC; Selected by yeast surface display against Ras-GTP; source: E. coli BL21(DE3), pET28a, purified (Ni beads, Superdex75 SEC)) EIKQKIDSYNSREYRRLGMKLSEDGTYTGYIKVHLKLRRPVTVPAGIRPQSIYDAIKEVNPAATTDKRTSFYLPLDAIKQLKISSTTTVSEVIQGLLKKFRVVDNPQKFALFKRIHKDGQVLFQKLSIADYPLYLRLLAGPDTDVLSFVLKENETGEV | 3000 ± 500 | 
